Measurements published in paper PMC7329908, “Glucocorticoid receptor complexes form cooperatively with the Hsp90 co-chaperones Pp5 and FKBPs” (Scientific Reports, 2020).

Assays:
Settings in all cases: both partners purified
[1] = biological target: T1, C. elegans Hsp90 (HSP-90) (C. elegans, UniProt Q18688 1-702); assay: AUC; sedimentation velocity with fluorescence detection; 600 nM ATTO 488-labelled GRLBDm, 3 μM unlabelled chaperones and cofactors, 2 mM ATPγS; 20 mM HEPES, 20 mM KCl, 5 mM MgCl2, 50 μM dexamethasone, pH 7.5; 42,000 rpm, 20 °C
T1 construct: HSP-90 (Hsp90 homolog), C. elegans; also called nematode HSP-90; nematode Hsp90; source: E. coli BL21 (DE3), purified (HisTrap, Resource Q, Superdex size exclusion)

human Hsp90β [2] = biological target: T2, human Hsp90β (human, UniProt P08238 1-724); assay: AUC; sedimentation velocity with fluorescence detection; 600 nM ATTO 488-labelled GRLBDm, 3 μM unlabelled chaperones and cofactors, no nucleotide; 20 mM HEPES, 20 mM KCl, 5 mM MgCl2, 50 μM dexamethasone, pH 7.5; 42,000 rpm, 20 °C
T2 construct: Hsp90β, human; source: E. coli BL21 (DE3), purified (HisTrap, Resource Q, Superdex size exclusion)
T2 sequence (P08238 whole entry): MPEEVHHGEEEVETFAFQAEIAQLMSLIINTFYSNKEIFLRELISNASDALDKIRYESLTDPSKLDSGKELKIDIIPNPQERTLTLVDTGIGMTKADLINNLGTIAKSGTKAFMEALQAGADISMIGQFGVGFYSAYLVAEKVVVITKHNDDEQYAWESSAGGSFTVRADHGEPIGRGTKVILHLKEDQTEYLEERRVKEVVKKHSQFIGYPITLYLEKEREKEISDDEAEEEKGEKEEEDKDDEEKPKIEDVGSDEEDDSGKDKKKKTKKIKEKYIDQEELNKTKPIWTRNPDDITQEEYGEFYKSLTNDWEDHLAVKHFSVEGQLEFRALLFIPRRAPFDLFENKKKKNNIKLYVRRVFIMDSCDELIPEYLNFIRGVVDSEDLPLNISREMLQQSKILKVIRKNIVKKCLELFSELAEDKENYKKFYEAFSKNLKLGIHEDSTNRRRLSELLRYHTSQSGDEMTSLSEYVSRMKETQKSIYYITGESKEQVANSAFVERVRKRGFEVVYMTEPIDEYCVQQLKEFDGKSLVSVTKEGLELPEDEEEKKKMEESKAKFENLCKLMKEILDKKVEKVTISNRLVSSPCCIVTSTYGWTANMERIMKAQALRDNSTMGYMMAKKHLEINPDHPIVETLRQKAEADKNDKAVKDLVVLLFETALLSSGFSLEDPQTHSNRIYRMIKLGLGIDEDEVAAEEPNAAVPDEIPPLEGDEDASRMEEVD

human Hsp90β [3] = biological target: T2, human Hsp90β; assay: AUC; sedimentation velocity with fluorescence detection; 600 nM ATTO 488-labelled GRLBDm, 3 μM unlabelled chaperones and cofactors, 2 mM ATPγS; 20 mM HEPES, 20 mM KCl, 5 mM MgCl2, 50 μM dexamethasone, pH 7.5; 42,000 rpm, 20 °C
[4] = biological target: T1, C. elegans Hsp90 (HSP-90); assay: AUC; sedimentation velocity with fluorescence detection; 600 nM ATTO 488-labelled GRLBDm, 3 μM unlabelled chaperones and cofactors, no nucleotide; 20 mM HEPES, 20 mM KCl, 5 mM MgCl2, 50 μM dexamethasone, pH 7.5; 42,000 rpm, 20 °C

B1: PPH-5, nematode protein phosphatase, homolog of human Pp5 (enzyme, C. elegans, UniProt Q9NES8 1-496, looked up)
chain: MAATITDDIVATVLESIEEKSYEDEKEKAGMIKDEANQFFKDQVYDVAADLYSVAIEIHPTAVLYGNRAQAYLKKELYGSALEDADNAIAIDPSYVKGFYRRATANMALGRFKKALTDYQAVVKVCPNDKDARAKFDECSKIVRRQKFEAAISTDHDKKTVAETLDINAMAIEDSYDGPRLEDKITKEFVLQLIKTFKNQQKLHKKYAFKMLLEFYNYVKSLPTMVEITVPTGKKFTICGDVHGQFYDLCNIFEINGYPSETNPYLFNGDFVDRGSFSVETIFTMIGFKLLYPNHFFMSRGNHESDVMNKMYGFEGEVKAKYTQQMCDMFTETFCWLPLCHLINEKIFVCHGGLFKEDGVTLEDIRKTDRNRQPPDEGIMCDLLWSDPQPINGRSPSKRGVGCQFGPDVTSKWCETNGIEYVVRSHEVKPEGYEMHHNGQCFTVFSAPNYCDQMNNKGAFITITGDNLTPRFTPFDAVPHPKLPPMAYANSLFGFN
notes: PPH-5, TPR-containing serine/threonine phosphatase, C. elegans; source: E. coli BL21 (DE3), purified (HisTrap, Resource Q, Superdex size exclusion)
B1: binds [1].

B2: FKB-6, nematode large prolyl isomerase (FK1, FK2 and TPR domains) (enzyme, C. elegans, UniProt O45418 1-431, looked up)
chain: MSGEKIDITPKKDGGVLKLIKKEGQGVVKPTTGTTVKVHYVGTLENGTKFDSSRDRGDQFSFNLGRGNVIKGWDLGVATMTKGEVAEFTIRSDYGYGDAGSPPKIPGGATLIFEVELFEWSAEDISPDRDGTILRTIIVEGSKNSFPNDTSKVLAHCVGTYQGTEFYNREVNFHIGEGSEEGLPEGVERALRRFQLGEKSKIEIRGHKYTYGNSPPAGSNIPVNATLEFTIFLKEFEKVPATWEMTAEEKLDAAKQAKDRGTMYLQKGNLKLAYNKYKRAEEVLEYEKSTDPEKMAERETILNGAYLNLSLVCSKQNEQLECIKWCDKVLETKPGNVKALYRKATALLTMNEVRDAMKLFEKIVEVEPENKAAAQQIIVCRNTIREQNERDKKRFKNLFAKISTEEDKPTNTVEDEDEIVASTSGSSTSNA
notes: FKB-6, peptidyl prolyl isomerase with FK1, FK2 and C-terminal TPR region, C. elegans; source: E. coli BL21 (DE3), purified (HisTrap, Resource Q, Superdex size exclusion)
B2: binds [1].

B3: human protein phosphatase Pp5 (enzyme, UniProt P53041 1-499, looked up)
chain: MAMAEGERTECAEPPRDEPPADGALKRAEELKTQANDYFKAKDYENAIKFYSQAIELNPSNAIYYGNRSLAYLRTECYGYALGDATRAIELDKKYIKGYYRRAASNMALGKFRAALRDYETVVKVKPHDKDAKMKYQECNKIVKQKAFERAIAGDEHKRSVVDSLDIESMTIEDEYSGPKLEDGKVTISFMKELMQWYKDQKKLHRKCAYQILVQVKEVLSKLSTLVETTLKETEKITVCGDTHGQFYDLLNIFELNGLPSETNPYIFNGDFVDRGSFSVEVILTLFGFKLLYPDHFHLLRGNHETDNMNQIYGFEGEVKAKYTAQMYELFSEVFEWLPLAQCINGKVLIMHGGLFSEDGVTLDDIRKIERNRQPPDSGPMCDLLWSDPQPQNGRSISKRGVSCQFGPDVTKAFLEENNLDYIIRSHEVKAEGYEVAHGGRCVTVFSAPNYCDQMGNKASYIHLQGSDLRPQFHQFTAVPHPNVKPMAYANTLLQLGMM
notes: Pp5 (serine/threonine protein phosphatase 5), human; source: E. coli BL21 (DE3), purified (HisTrap, Resource Q, Superdex size exclusion)
B3: binds (human Hsp90β [2]).

B4: human Fkbp51 (enzyme, UniProt Q13451 1-457, looked up)
chain: MTTDEGAKNNEESPTATVAEQGEDITSKKDRGVLKIVKRVGNGEETPMIGDKVYVHYKGKLSNGKKFDSSHDRNEPFVFSLGKGQVIKAWDIGVATMKKGEICHLLCKPEYAYGSAGSLPKIPSNATLFFEIELLDFKGEDLFEDGGIIRRTKRKGEGYSNPNEGATVEIHLEGRCGGRMFDCRDVAFTVGEGEDHDIPIGIDKALEKMQREEQCILYLGPRYGFGEAGKPKFGIEPNAELIYEVTLKSFEKAKESWEMDTKEKLEQAAIVKEKGTVYFKGGKYMQAVIQYGKIVSWLEMEYGLSEKESKASESFLLAAFLNLAMCYLKLREYTKAVECCDKALGLDSANEKGLYRRGEAQLLMNEFESAKGDFEKVLEVNPQNKAARLQISMCQKKAKEHNERDRRIYANMFKKFAEQDAKEEANKAMGKKTSEGVTNEKGTDSQAMEEEKPEGHV
notes: Fkbp51, human PPIase; source: E. coli BL21 (DE3), purified (HisTrap, Resource Q, Superdex size exclusion)
B4: binds (human Hsp90β [2]).

B5: human Fkbp52 (enzyme, UniProt Q02790 1-459, looked up)
chain: MTAEEMKATESGAQSAPLPMEGVDISPKQDEGVLKVIKREGTGTEMPMIGDRVFVHYTGWLLDGTKFDSSLDRKDKFSFDLGKGEVIKAWDIAIATMKVGEVCHITCKPEYAYGSAGSPPKIPPNATLVFEVELFEFKGEDLTEEEDGGIIRRIQTRGEGYAKPNEGAIVEVALEGYYKDKLFDQRELRFEIGEGENLDLPYGLERAIQRMEKGEHSIVYLKPSYAFGSVGKEKFQIPPNAELKYELHLKSFEKAKESWEMNSEEKLEQSTIVKERGTVYFKEGKYKQALLQYKKIVSWLEYESSFSNEEAQKAQALRLASHLNLAMCHLKLQAFSAAIESCNKALELDSNNEKGLFRRGEAHLAVNDFELARADFQKVLQLYPNNKAAKTQLAVCQQRIRRQLAREKKLYANMFERLAEEENKAKAEASSGDHPTDTEMKEEQKSNTAGSQSQVETEA
notes: Fkbp52, human PPIase; source: E. coli BL21 (DE3), purified (HisTrap, Resource Q, Superdex size exclusion)
B5: binds (human Hsp90β [2]).

B6: human p23 (natural protein, UniProt Q15185 1-160, looked up)
chain: MQPASAKWYDRRDYVFIEFCVEDSKDVNVNFEKSKLTFSCLGGSDNFKHLNEIDLFHCIDPNDSKHKRTDRSILCCLRKGESGQSWPRLTKERAKLNWLSVDFNNWKDWEDDSDEDMSNFDRFSEMMNNMGGDEDVDLPEVDGADDDSQDSDDEKMPDLE
notes: p23 co-chaperone, human; source: E. coli BL21 (DE3), purified (HisTrap, Resource Q, Superdex size exclusion)
B6: binds (human Hsp90β [3]).

B7: STI-1, nematode TPR cofactor of HSP-90 (homolog of human Hop) (natural protein, C. elegans, UniProt O16259 1-320, looked up)
chain: MTDAAIAEKDLGNAAYKQKDFEKAHVHYDKAIELDPSNITFYNNKAAVYFEEKKFAECVQFCEKAVEVGRETRADYKLIAKAMSRAGNAFQKQNDLSLAVQWFHRSLSEFRDPELVKKVKELEKQLKAAERLAYINPELAQEEKNKGNEYFKKGDYPTAMRHYNEAVKRDPENAILYSNRAACLTKLMEFQRALDDCDTCIRLDSKFIKGYIRKAACLVAMREWSKAQRAYEDALQVDPSNEEAREGVRNCLRSNDEDPEKAKERSLADPEVQEILRDPGMRMILEQMSNDPGAVREHLKNPEIFQKLMKLRDAGVIQMR
notes: STI-1, C. elegans; source: E. coli BL21 (DE3), purified (HisTrap, Resource Q, Superdex size exclusion)
B7: binds [4].
